Laboratory results from article PMC4075454.

Columns and labels:
WDR5 [1] = molecular target: WDR5 (UniProt P61964); assay: biotin-peptide streptavidin pull-down, anti-GST blot; details: reference: unmodified H3 peptide; sites T11
WDR5 [2] = molecular target: WDR5 (UniProt P61964); assay: peptide pull-down, silver stain, MALDI-TOF identification; details: reference: unmodified H3 peptide; sites T11

Substance: histone H3 (synthetic tail peptides) 1-21 (from UniProt P68431) H3T11P peptide
- binding against the reference (WDR5 [1]): stronger
- binding against the reference (WDR5 [2]): stronger
